The target of data set [1] is Tae4-ATTO 488 (fluorescently labelled Tae4 from Salmonella typhimurium) (Salmonella typhimurium). The experiment in a line: stopped-flow fluorescence kinetics; association by direct mixing: 0.1 µM Tae4-ATTO 488 with 0.3-1.5 µM Tai4; 293 K; 50 mM MES pH 6.5, 200 mM NaCl; kobs against Tai4 concentration, kon from the slope.
Data set [2] has the same target. The experiment in a line: stopped-flow fluorescence kinetics; dissociation: preassembled Tae4-ATTO 488/Tai4 complex (0.1 µM wild type or 0.2 µM mutant) chased with 1 or 2 µM unlabelled Tae4; apparent dissociation rate constant; limit for the wild type from simulated traces; KD calculated as koff/kon with the kon of the direct mixing.
The target is the same in data set [3]. Described as above. The source holds these as a separate data set.
Data set [4] addresses T1, Tae4 effector protein from Salmonella typhimurium (full-length, hexahistidine-tagged) (Salmonella typhimurium, UniProt Q93IS4 1-161).
T1 chain: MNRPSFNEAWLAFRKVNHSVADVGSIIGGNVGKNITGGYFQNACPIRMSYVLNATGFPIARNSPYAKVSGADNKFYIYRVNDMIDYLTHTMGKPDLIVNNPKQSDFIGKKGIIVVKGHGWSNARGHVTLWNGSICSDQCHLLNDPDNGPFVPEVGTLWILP
Description: ITC.

Data set [5] concerns the molecule itself. The experiment in a line: cross-linking; glutaraldehyde, 0.25 µg/µl protein in 20 mM HEPES pH 7.5, 37°C, aliquots 0 to 60 min, Coomassie-stained SDS-PAGE.
Data set [6] concerns the target T2, Tae4 effector protein from Salmonella typhimurium (full-length, hexahistidine-tagged) (Salmonella typhimurium, UniProt Q93IS4 1-161).
T2 construct: Tae4, Salmonella typhimurium, NP_459275.1, full-length orf; Asn2 to the C-terminal Pro161 modelled in the crystal structure; The single-expression construct was cut out of the bicistronic construct (NcoI/MfeI), so the Tae4 chain is the same in both; No tag removal is described; The crystal for PDB 4J30 held the selenomethionine-substituted complex; also called type-6-secretion amidase effector 4; …
T2 sequence: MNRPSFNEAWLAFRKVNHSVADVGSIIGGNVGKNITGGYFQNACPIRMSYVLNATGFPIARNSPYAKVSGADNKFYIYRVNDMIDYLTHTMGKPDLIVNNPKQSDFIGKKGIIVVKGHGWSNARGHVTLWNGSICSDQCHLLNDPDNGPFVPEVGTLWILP
Description: ITC; 29.5 µM wild-type Tai4 titrated into 2.17 µM Tae4 in the cell; 293 K; 50 mM MES pH 6.5, 200 mM NaCl; single-site binding model. The conditions noted are these: both partners purified. For orientation: ITC needs no label: the signal is the heat of the interaction.

Data set [7] has as its target T2, Tae4 effector protein from Salmonella …. The experiment in a line: stopped-flow fluorescence kinetics; association by intrinsic tryptophan fluorescence (excitation 280 nm): 1.8 µM unlabelled Tae4 with 2.3-9.9 µM wild-type Tai4; 50 mM MES pH 6.5, 200 mM NaCl; data not shown. The conditions noted are these: both partners purified.
The target is the same in data set [8]. The experiment in a line: SEC-MALS; Superdex200 10/300 GL with multiangle light scattering detector; 50 mM Tris-HCl pH 8.0, 200 mM NaCl; 100 µM protein, 40 µl applied, 0.5 ml/min. The conditions noted are these: both partners purified. In general terms: SEC sorts molecules by how far they enter the pores of the column.

Where two headings read alike, the source gives them in different places.

In the case of “Tai4 immunity protein from Salmonella typhimurium, wild type, periplasmic (C-terminal hexahistidine tag) (from UniProt Q8ZRL5 27-127) (natural protein)”, the kon (in general, the second-order rate constant of association) in data set [1] was found to be 2.48e+06 M⁻¹ s⁻¹. Besides, the Kd in data set [2] is less than 0.28 nM. In addition, the values for the off-rate (koff) in data set [2] and in data set [3] were less than 0.0007 s⁻¹ and 7e-05 to 0.0007 s⁻¹, respectively.
“Tai4(E71A_S98A) variant of the immunity protein from Salmonella typhimurium (C-terminal hexahistidine tag) (natural protein)”: the kon in data set [1] stood at 2.81e+06 M⁻¹ s⁻¹. In addition, in data set [2], the Kd is 255 nM and the koff (as a rule, the first-order rate constant of dissociation) is 0.716 s⁻¹.

B1: Tai4 immunity protein from Salmonella typhimurium, wild type, periplasmic (C-terminal hexahistidine tag) (natural protein)
chain: QEALTTQYSQSELLKNWALSHCLALVYKDDVVKNDARATASAYLEYGKQSVEIYHEIDEIAKKYSGLKYNGSISSDFNTMKCIDFIHDRELNELIKRRVEK
notes: Tai4, Salmonella typhimurium, NP_459276.1; Dimer in solution (cross-linking, static light scattering); the calculated dimer mass of 25.95 kDa fits the cut, tagged protein; also called Tai4wt; wild-type Tai4
In the case of B1, the Kd in data set [4] is 1.28 nM; in data set [6] it was less than 1 nM. For the same molecule, in data set [5], the stoichiometry N (in general, the number of molecules, sites or subunits per partner or assembly) worked out at 2. Also, the kon in data set [7] amounted to 2.57e+06 ± 233000 M⁻¹ s⁻¹.

B2: Tai4 immunity protein from Salmonella typhimurium, untagged, co-expressed with Tae4 (as in the Tae4/Tai4 complex) (natural protein)
chain: QEALTTQYSQSELLKNWALSHCLALVYKDDVVKNDARATASAYLEYGKQSVEIYHEIDEIAKKYSGLKYNGSISSDFNTMKCIDFIHDRELNELIKRRVEK
notes: Tai4, Salmonella typhimurium, NP_459276.1; Gln27 to Lys127 modelled in the crystal structure; Homodimer at the centre of the Tae4_2/Tai4_2 heterotetramer; The crystal for PDB 4J30 held the selenomethionine-substituted complex
As for B2, the “stoichiometry N” value in data set [8] is 1 Tai4 per Tae4 (2:2).

(Values after article PMC3695027, “Structural Insights into the Effector – Immunity System Tae4/Tai4 from Salmonella typhimurium” (PLoS ONE, 2013).)
